Test results: US20230374132A1 (Innovent, published 2023)
Residue numbers refer to the chain shown, from its start. Numbers in names are those of the source. Where two headings read alike, the source gives them in different places. Values belong to the binder of their own block, whether it stands above or below them.

Assays:
[1] = target: T1, human CD3E&G complex (Sino Biological Inc., CT041-H0305H) (human, UniProt P07766 23-126; P09693 23-116); assay: BLI, antibody on sensor
T1 construct: bought heterodimer; also called human CD3E&G antigen

[2] = target: T2, human CD3 E&D complex protein (Sino Biological Inc., CT026H0323H) (human, UniProt P07766 23-126; P04234 22-105); assay: BLI, antibody on sensor
T2 construct: bought heterodimer; also called human CD3 protein (CT026H0323H)

[3] = target: T3, human CD3 complex on Jurkat cells (human, UniProt P07766 23-207; P04234 22-171; P09693 23-182); assay: flow cytometry on Jurkat cells (human CD3 complex), 'Jurkat cell line binding', Example 3.2 [cont) D]
T3 construct: whole, on cells; natural CD3 complex of Jurkat T cells (also used here for CD3 on T cells of human PBMC); also called human CD3 at the cell level; CD3 on T cells
Method: (§1) Jurkat cells are immortalized human T lymphocytes, which express human CD3 complex. The cell line is used to detect the binding of the antibody to the cell. The detailed operation was as follows: Jurkat cells (Promega, J1621) was inoculated into U-shaped 96-well plate, 2×10⁵ for each well. The antibodies to be detected at a series of concentration gradients (the initial concentration of antibody molecule is 500 nM, 3 folds serial dilution) was added into the corresponding cell well, incubated at 4° C. for 30 minutes, and then PBS was used to wash out the unbound part. The sheep anti-human Fc PE fluorescent second antibody (Southern Biotech, J2815-5H87B) was added, then incubated at 4° C. for 15 minutes. and detected by flow cytometry ([…] BD). […] Some of these antibodies were selected to make a further binding curve at cell level.

[4] = target: T3, human CD3 complex on Jurkat cells; assay: flow cytometry on Jurkat cells (human CD3 complex), 'Jurkat cell line binding', method of Example 3.2
Method: as §1

[5] = target: T4, cynomolgus monkey CD3 E&D complex protein (Sino Biological Inc., CT032-00323H) (cynomolgus monkey, UniProt Q95LI5 22-117; Q95LI8 22-105); assay: BLI, antibody on sensor
T4 construct: bought heterodimer

[6] = target: T2, human CD3 E&D complex protein (Sino …); assay: BLI, antibody on sensor; remark: listed apart in the source
[7] = target: T3, human CD3 complex on Jurkat cells; assay: flow cytometry on Jurkat cells (human CD3 complex), method of Example 3.2
Method: as §1

T3 sequence (P07766 23-207, chain 1 of 3): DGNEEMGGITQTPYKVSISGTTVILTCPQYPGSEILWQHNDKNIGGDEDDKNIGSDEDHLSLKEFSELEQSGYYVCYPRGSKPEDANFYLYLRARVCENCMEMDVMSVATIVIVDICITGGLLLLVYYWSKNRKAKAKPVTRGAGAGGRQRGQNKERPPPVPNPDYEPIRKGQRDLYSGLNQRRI
T3 sequence (P04234 22-171, chain 2 of 3): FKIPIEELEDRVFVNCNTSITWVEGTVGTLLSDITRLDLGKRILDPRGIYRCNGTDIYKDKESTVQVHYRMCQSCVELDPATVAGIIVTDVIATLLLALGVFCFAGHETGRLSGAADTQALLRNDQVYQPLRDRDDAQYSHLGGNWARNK
T3 sequence (P09693 23-182, chain 3 of 3): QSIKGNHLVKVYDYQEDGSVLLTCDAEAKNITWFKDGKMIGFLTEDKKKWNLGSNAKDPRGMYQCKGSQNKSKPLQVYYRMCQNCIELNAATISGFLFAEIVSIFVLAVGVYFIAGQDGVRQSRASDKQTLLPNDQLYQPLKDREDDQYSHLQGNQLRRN
T4 sequence (Q95LI5 22-117, chain 1 of 2): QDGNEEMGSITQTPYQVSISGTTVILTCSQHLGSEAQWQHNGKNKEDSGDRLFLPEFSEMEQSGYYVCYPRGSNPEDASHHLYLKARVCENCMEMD
T4 sequence (Q95LI8 22-105, chain 2 of 2): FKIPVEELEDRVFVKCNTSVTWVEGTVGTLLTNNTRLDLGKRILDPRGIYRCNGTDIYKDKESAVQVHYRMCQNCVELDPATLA
T1 sequence (P07766 23-126, chain 1 of 2): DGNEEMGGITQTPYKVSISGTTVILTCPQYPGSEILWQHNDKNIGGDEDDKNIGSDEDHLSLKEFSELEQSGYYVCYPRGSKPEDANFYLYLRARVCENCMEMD
T1 sequence (P09693 23-116, chain 2 of 2): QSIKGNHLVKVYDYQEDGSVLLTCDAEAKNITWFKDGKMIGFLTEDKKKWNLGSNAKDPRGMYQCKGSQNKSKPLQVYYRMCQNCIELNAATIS
T2 sequence (P07766 23-126, chain 1 of 2): as the sequence (P07766 23-126, chain 1 of 2) above
T2 sequence (P04234 22-105, chain 2 of 2): as the sequence (Q95LI8 22-105, chain 2 of 2) above, with V5I, K15N, V20I, T32S, N33D, N34I, A64T, N74S, L83V counted along it

- Kd [1]: 6.22 nM
- koff [1]: 0.00149 s⁻¹
- kon [1]: 240000 M⁻¹ s⁻¹
- Kd [2]: 0.638 nM
- koff [2]: 0.000157 s⁻¹
- kon [2]: 246000 M⁻¹ s⁻¹
- EC50 [3]: 2 nM
- EC50 (read off the curve) [4]: ~0.5 nM
- Kd [5]: 0.646 nM
- koff [5]: 0.000795 s⁻¹
- kon [5]: 1.23e+06 M⁻¹ s⁻¹
- Kd [6]: 0.932 nM
- koff [6]: 0.0019 s⁻¹
- kon [6]: 2.04e+06 M⁻¹ s⁻¹
B1: sp34 (antibody, human IgG1, lambda, L234A L235A, V domains shown)
VH: EVQLVESGGGLVQPKGSLKLSCAASGFTFNTYAMNWVRQAPGKGLEWVARIRSKYNNYATYYADSVKDRFTISRDDSQSILYLQMNNLKTEDTAMYYCVRHGNFGNSYVSWFAYWGQGTLVTVSS
VL: QAVVTQESALTTSPGETVTLTCRSSTGAVTTSNYANWVQEKPDHLFTGLIGGTNKRAPGVPARFSGSLIGDKAALTITGAQTEDEAIYFCALWYSNLWVFGGGTKLTVLG
notes: mouse variable regions on human IgG1 L234A L235A and lambda constant regions; also called chimeric antibody sp34; mouse sp34

- binding result [1]: no binding
- binding result [2]: no binding
B2: hzsp34.95 (antibody, human IgG1, lambda, L234A L235A, V domains shown)
VH: EVQLVESGGGLVQPGGSLKLSCAASGFTFSGSAMNWVRQASGKGLEWVGRIRSKYNNYATYYADSVKDRFTISRDDSKSTLYLQMNSLKTEDTAVYYCARHGNFGQSYVSWFAYWGQGTTVTVSS
VL: QAVVTQEPSLTVSPGGTVTLTCRSSTGAVTTSNYANWVQQKPGQAPRGLIGGTNKRAPGVPARFSGSLLGDKAALTLLGAQPEDEAEYYCALWYSNLWVFGQGTKLTVLG
notes: CDR mutant of hzsp34.24; IgG1 L234A L235A, lambda
- binding result [7]: no binding (tested: 900 (no unit printed on the sheet))

- binding result [1]: no binding
- binding result [2]: no binding
B3: hzsp34.96 (antibody, human IgG1, lambda, L234A L235A, V domains shown)
VH: B2 VH with S30N, G31T, S32Y, R52S, S53L
VL: B2 VL
notes: as for B2
- binding result [7]: no binding (tested: 900 (no unit printed on the sheet))

- Kd [1]: 16 nM
- koff [1]: 0.00286 s⁻¹
- kon [1]: 179000 M⁻¹ s⁻¹
- Kd [2]: 4.11 nM
- koff [2]: 0.000914 s⁻¹
- kon [2]: 223000 M⁻¹ s⁻¹
- EC50 (read off the curve) [4]: ~4 nM
B4: hzsp34.116 (antibody, human IgG1, lambda, L234A L235A, V domains shown)
VH: B2 VH with S30N, G31T, S32Y
VL: B2 VL with K55S, N96D
notes: as for B2
